Columns and labels:
I53-50B.4PT1 pentamer [1] = assay: nanoparticle assembly grade, Table 3
I53-50B.4PT1 pentamer [2] = assay: in vitro nanoparticle assembly (Table 3; '-' means no nanoparticle assembly)
I53_dn5B trimer [3] = target: T1, I53_dn5B trimer; assay: in vitro nanoparticle assembly, SEC
T1 chain: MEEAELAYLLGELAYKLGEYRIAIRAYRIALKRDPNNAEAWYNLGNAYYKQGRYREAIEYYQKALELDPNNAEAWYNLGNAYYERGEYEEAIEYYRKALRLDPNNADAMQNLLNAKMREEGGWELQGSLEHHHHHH

I53_dn5B trimer [4] = target: T1, I53_dn5B trimer; assay: in vitro nanoparticle assembly, SEC and SDS-PAGE

Binder | binding result (I53-50B.4PT1 pentamer [1]) | other results
I53-50A_4gly trimer (designed binder, N-linked glycans at sequons 45-NAT-47; 73-YANET-77; 96-NFT-98; 146-FHNAT-150) EELFKKHKIVAVLRANSVEEAIEKAVAVFAGGVHLIEITFTVPNATTVIKALSVLKEKGAIIGAGTVTSVEYANETVESGAEFIVSPHLDEEISNFTKEKGVFYMPGVMTPTELVKAMKLGHTILKLFPGEVVGPQFVKAMKGPFHNATFVPTGGVNLDNVCEWFKAGVLAVGVGSALVKGTPDEVREKAKAFVEKIRGCLEEQKLISEEDLHHHHHH | binds | 
SEQ ID NO 77 (I53-50A_7gly) (designed binder, N-linked glycans at sequons 45-NAT-47; 73-YANET-77; 81-NAT-83; 96-NFT-98; 102-NVT-104; 122-NVT-124; 146-FHNAT-150) EELFKKHKIVAVLRANSVEEAIEKAVAVFAGGVHLIEITFTVPNATTVIKALSVLKEKGAIIGAGTVTSVEYANETVESNATFIVSPHLDEEISNFTKEKNVTYMPGVMTPTELVKAMKLNVTILKLFPGEVVGPQFVKAMKGPFHNATFVPTGGVNLDNVCEWFKAGVLAVGVGSALVKGTPDEVREKAKAFVEKIRGC |  | binding result (I53-50B.4PT1 pentamer [2]): no binding
SEQ ID NO 76 (I53-50A_7gly) (designed binder, N-linked glycans at sequons 45-NAT-47; 69-FSNET-73; 81-NAT-83; 96-NFT-98; 102-NVT-104; 122-NVT-124; 146-FHNAT-150) EELFKKHKIVAVLRANSVEEAIEKAVAVFAGGVHLIEITFTVPNATTVIKALSVLKEKGAIIGAGTVFSNETCRKAVESNATFIVSPHLDEEISNFTKEKNVTYMPGVMTPTELVKAMKLNVTILKLFPGEVVGPQFVKAMKGPFHNATFVPTGGVNLDNVCEWFKAGVLAVGVGSALVKGTPDEVREKAKAFVEKIRGC |  | binding result (I53-50B.4PT1 pentamer [2]): no binding
SEQ ID NO 68 (I53-50A_4gly) (designed binder, N-linked glycans at sequons 45-NAT-47; 73-YANET-77; 81-NAT-83; 96-NFT-98) EELFKKHKIVAVLRANSVEEAIEKAVAVFAGGVHLIEITFTVPNATTVIKALSVLKEKGAIIGAGTVTSVEYANETVESNATFIVSPHLDEEISNFTKEKGVFYMPGVMTPTELVKAMKLGHTILKLFPGEVVGPQFVKAMKGPFPNVKFVPTGGVNLDNVCEWFKAGVLAVGVGSALVKGTPDEVREKAKAFVEKIRGC | binds | 
SEQ ID NO 73 (I53-50A_6gly) (designed binder, N-linked glycans at sequons 45-NAT-47; 69-FSNET-73; 96-NFT-98; 102-NVT-104; 122-NVT-124; 146-FHNAT-150) EELFKKHKIVAVLRANSVEEAIEKAVAVFAGGVHLIEITFTVPNATTVIKALSVLKEKGAIIGAGTVFSNETCRKAVESGAEFIVSPHLDEEISNFTKEKNVTYMPGVMTPTELVKAMKLNVTILKLFPGEVVGPQFVKAMKGPFHNATFVPTGGVNLDNVCEWFKAGVLAVGVGSALVKGTPDEVREKAKAFVEKIRGC | binds | 
SEQ ID NO 74 (I53-50A_6gly) (designed binder, N-linked glycans at sequons 45-NAT-47; 81-NAT-83; 96-NFT-98; 102-NVT-104; 122-NVT-124; 146-FHNAT-150) EELFKKHKIVAVLRANSVEEAIEKAVAVFAGGVHLIEITFTVPNATTVIKALSVLKEKGAIIGAGTVTSVEQCRKAVESNATFIVSPHLDEEISNFTKEKNVTYMPGVMTPTELVKAMKLNVTILKLFPGEVVGPQFVKAMKGPFHNATFVPTGGVNLDNVCEWFKAGVLAVGVGSALVKGTPDEVREKAKAFVEKIRGC | binds | 
SEQ ID NO 75 (I53-50A_6gly) (designed binder, N-linked glycans at sequons 45-NAT-47; 73-YANET-77; 96-NFT-98; 102-NVT-104; 122-NVT-124; 146-FHNAT-150) EELFKKHKIVAVLRANSVEEAIEKAVAVFAGGVHLIEITFTVPNATTVIKALSVLKEKGAIIGAGTVTSVEYANETVESGAEFIVSPHLDEEISNFTKEKNVTYMPGVMTPTELVKAMKLNVTILKLFPGEVVGPQFVKAMKGPFHNATFVPTGGVNLDNVCEWFKAGVLAVGVGSALVKGTPDEVREKAKAFVEKIRGC |  | binding result (I53-50B.4PT1 pentamer [2]): no binding
SEQ ID NO 71 (I53-50A_5gly) (designed binder, N-linked glycans at sequons 45-NAT-47; 73-YANET-77; 96-NFT-98; 122-NVT-124; 146-FHNAT-150) EELFKKHKIVAVLRANSVEEAIEKAVAVFAGGVHLIEITFTVPNATTVIKALSVLKEKGAIIGAGTVTSVEYANETVESGAEFIVSPHLDEEISNFTKEKGVFYMPGVMTPTELVKAMKLNVTILKLFPGEVVGPQFVKAMKGPFHNATFVPTGGVNLDNVCEWFKAGVLAVGVGSALVKGTPDEVREKAKAFVEKIRGC | binds | 
SEQ ID NO 69 (I53-50A_4gly) (designed binder, N-linked glycans at sequons 96-NFT-98; 102-NVT-104; 122-NVT-124; 146-FHNAT-150) EELFKKHKIVAVLRANSVEEAIEKAVAVFAGGVHLIEITFTVPDADTVIKALSVLKEKGAIIGAGTVTSVEQCRKAVESGAEFIVSPHLDEEISNFTKEKNVTYMPGVMTPTELVKAMKLNVTILKLFPGEVVGPQFVKAMKGPFHNATFVPTGGVNLDNVCEWFKAGVLAVGVGSALVKGTPDEVREKAKAFVEKIRGC | binds | 
I53_dn5A_D120C pentamer coupled to 1 kDa PEG (designed binder) MGKYDGSKLRIGILHARGNAEIILALVLGALKRLQEFGVKRENIIIETVPGSFELPYGSKLFVEKQKRLGKPLDAIIPIGVLIRGSTPHFDYIADSTTHQLMKLNFELGIPVIFGVITADTCEQAEARAGLIEGKMHNHGEDWGAAAVEMATKFNGGWELQLEGSHHHHHH |  | binding result (I53_dn5B trimer [3]): binds
I53_dn5A_D120C pentamer coupled to 2 kDa PEG (designed binder) MGKYDGSKLRIGILHARGNAEIILALVLGALKRLQEFGVKRENIIIETVPGSFELPYGSKLFVEKQKRLGKPLDAIIPIGVLIRGSTPHFDYIADSTTHQLMKLNFELGIPVIFGVITADTCEQAEARAGLIEGKMHNHGEDWGAAAVEMATKFNGGWELQLEGSHHHHHH |  | binding result (I53_dn5B trimer [3]): binds
I53_dn5A_1C5kPEG pentamer (designed binder) MGKYDGSKLRIGILHARGNAEIILALVLGALKRLQEFGVKRENIIIETVPGSFELPYGSKLFVEKQKRLGKPLDAIIPIGVLIRGSTPHFDYIADSTTHQLMKLNFELGIPVIFGVITADTCEQAEARAGLIEGKMHNHGEDWGAAAVEMATKFNGGWELQLEGSHHHHHH |  | binding result (I53_dn5B trimer [4]): binds

Source: patent US20240042018A1 (University of Washington, published 2024)
